Experimental data from publication PMC11329700, “Dynamin 1xA interacts with Endophilin A1 via its spliced long C-terminus for ultrafast endocytosis” (The EMBO Journal, 2024).
Substitutions are numbered along the chain they refer to.

T1: Dyn1xA-PRR 746-864 (GST tag removed) (rat, UniProt P21575 746-864)
T1 construct: For SEC-MALS the removal is surmised from the predicted 19.4 kDa of the 1:1 complex; source: E. coli, 15N- or 15N,13C-labelled for NMR, GST cleaved, purified by gel filtration
T1 sequence (looked up): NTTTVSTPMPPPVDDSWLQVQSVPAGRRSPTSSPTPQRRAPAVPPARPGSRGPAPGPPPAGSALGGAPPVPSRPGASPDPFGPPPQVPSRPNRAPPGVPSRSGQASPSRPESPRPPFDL

T2: GST-dyn1xA-PRR R838A (rat, UniProt P21575 746-864, R838A)
T2 construct: also called R838A (Dyn1xA-PRR); source: E. coli JM109; GST fusion on GSH-sepharose beads
T2 sequence (looked up): T1 sequence (looked up) with R93A

T3: GST-Dyn1xA-PRR (dynamin 1xA proline-rich region, amino acids 746-864) (rat, UniProt P21575 746-864)
T3 construct: also called full-length Dyn1xA-PRR; source: E. coli JM109; GST fusion on GSH-sepharose beads (pull-down), GST-tagged in solution (ELISA)
T3 sequence (looked up): T1 sequence (looked up)

B1: Endophilin A1 SH3 domain (GST tag removed) (domain or fragment)
chain: not shown
notes: Endophilin A1, mouse, SH3 domain, amino acids 292-352 (methods); the results print residues D291-H352; Cleavage is stated for the NMR experiments; for SEC-MALS it is surmised from the predicted 19.4 kDa of the 1:1 complex; also called endophilin SH3; Endophilin A SH3; source: E. coli JM109, GST fusion, GST cleaved, purified by gel filtration
B2: Endophilin A1 (natural protein, UniProt O35179 1-352, looked up)
chain: MSVAGLKKQFHKATQKVSEKVGGAEGTKLDDDFKEMERKVDVTSRAVMEIMTKTIEYLQPNPASRAKLSMINTMSKIRGQEKGPGYPQAEALLAEAMLKFGRELGDDCNFGPALGEVGEAMRELSEVKDSLDMEVKQNFIDPLQNLHDKDLREIQHHLKKLEGRRLDFDYKKKRQGKIPDEELRQALEKFDESKEIAESSMFNLLEMDIEQVSQLSALVQAQLEYHKQAVQILQQVTVRLEERIRQASSQPRREYQPKPRMSLEFATGDGTQPNGGLSHTGTPKPAGVQMDQPCCRALYDFEPENEGELGFKEGDIITLTNQIDENWYEGMLHGQSGFFPINYVEILVALPH
notes: Endophilin-A1, rat, endogenous full-length protein of nerve terminals; The Western blots are probed with antibodies to Endophilin A; also called 40 kDa protein; source: endogenous, rat brain synaptosomal lysate
B3: GST-Dyn1xA-PRR 806-864 (domain or fragment, rat, UniProt P21575 806-864, looked up)
chain: GSALGGAPPVPSRPGASPDPFGPPPQVPSRPNRAPPGVPSRSGQASPSRPESPRPPFDL
notes: source: E. coli JM109; GST fusion on GSH-sepharose beads (pull-down), GST-tagged in solution (ELISA)
B4: His-tagged mouse Endophilin A1 SH3 domain (domain or fragment)
chain: not shown
notes: Endophilin A1, mouse, SH3 domain; The methods describe only a GST-Endophilin A1-SH3 construct (mouse, amino acids 292-352); the His-tagged construct of the ELISA is not described; also called His-tagged mouse Endophilin-SH3 domain
B5: Amphiphysin 1 (natural protein, UniProt O08838 1-683, looked up)
chain: MADIKTGIFAKNVQKRLNRAQEKVLQKLGKADETKDEQFEEYVQNFKRQEAEGTRLQRELRGYLAAIKGMQEASMKLTESLHEVYEPDWYGREDVKMVGEKCDVLWEDFHQKLVDGSLLTLDTYLGQFPDIKNRIAKRSRKLVDYDSARHHLEALQSSKRKDESRISKAEEEFQKAQKVFEEFNVDLQEELPSLWSRRVGFYVNTFKNVSSLEAKFHKEIAVLCHKLYEVMTKLGDQHADKAFSIQGAPSDSGPLRIAKTPSPPEEASPLPSPTASPNHTLAPASPAPVRPRSPSQTRKGPPVPPLPKVTPTKELQQENIINFFEDNFVPEINVTTPSQNEVLEVKKEETLLDLDFDPFKPDVTPAGSAAATHSPMSQTLPWDLWTTSTDLVQPASGGSFNDFTQPQDTSLFTMQTDQNMAETEQALPTEPQAEEPPTTAAAPTAGLDLGLEMEEPKEEAAIPPGTDAGETVGTEGSTGEEAEAEKAALPAGEGESPEGAKIDVESTELASSESPQAAELEAGAPQEKVIPSVVIEPASNHEGEEHQETTTGTETREATEDVAPQGPAGEKQELATEPTPLDSQAATPAPAGAVDASLSAGDAAQELPPGFLYKVETLHDFEAANSDELTLQRGDVVLVVPSDSEADQDAGWLVGVKESDWLQYRDLATYKGLFPENFTRHLE
notes: Amphiphysin 1, rat, endogenous in synaptosomes, detected by Western blot; also called Amphiphysin I; source: endogenous, rat brain synaptosomal lysate

Columns and labels:
[1] = molecular target: T1, Dyn1xA-PRR 746-864 (GST tag removed); assay: SEC-MALS; Superdex 75 10/300 GL, 20 mM HEPES, 100 mM NaCl, 1 mM DTT, 1 mM PMSF, pH 7.2; complex at 0.5 mg and diluted to one third (0.167 mg); conditions: both partners purified
GST-dyn1xA-PRR R838A = molecular target: T2, GST-dyn1xA-PRR R838A; assay: pull-down; GST fusion proteins on GSH-sepharose beads incubated with pre-cleared rat brain synaptosomal lysate (20 mM Tris pH 7.4, 150 mM NaCl, 1% Triton X-100, 1 mM EDTA, 1 mM EGTA) at 4 °C for 1 h; bound proteins by Coomassie stain or Western blot (some blots quantified by densitometry); conditions: one partner purified
[2] = molecular target: B4; assay: ELISA; His-tagged mouse Endophilin A1 SH3 domain coated onto a 96-well plate, overlaid with increasing concentrations of GST-tagged Dyn1-PRR peptides; two experiments with four replicates each; conditions: both partners purified
[3] = molecular target: T3, GST-Dyn1xA-PRR (dynamin 1xA …); assay: as above; conditions: both partners purified

Binder: B1
stoichiometry N [1]: 1

Binder: B2
binding relative to wild-type Dyn1xA-PRR (median) (GST-dyn1xA-PRR R838A): 68.2%

Binder: B3
fold difference in affinity from xA 746-864 [2]: < 2 fold
fold higher affinity than xA 751-798 [2]: 5 fold

Binder: B4
Kd [3]: 0.044 µM

Binder: B5
binding relative to wild-type Dyn1xA-PRR (median) (GST-dyn1xA-PRR R838A): 14.2%
